# Measurements published in patent US20200317768A1 (published 2020).
# T1: human FcγRIIb extracellular domain, C-terminal His-tag (human, UniProt P31994 43-217)
# T1 construct: also called FcgRIIb (human)
# T1 sequence: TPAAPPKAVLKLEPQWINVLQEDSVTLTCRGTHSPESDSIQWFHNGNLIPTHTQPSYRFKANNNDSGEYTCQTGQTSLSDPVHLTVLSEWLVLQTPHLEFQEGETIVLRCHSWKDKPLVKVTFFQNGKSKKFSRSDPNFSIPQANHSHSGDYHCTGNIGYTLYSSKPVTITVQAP
# T2: cynomolgus monkey FcγRIIIaS extracellular domain, His-tagged (cynomolgus monkey, UniProt Q8SPW2 21-206 at identity 1.00))
# T2 construct: also called cyno FcγRIIIaS; cynoFcγRIIIaS; not shown: C-terminal His-tag
# T2 chain: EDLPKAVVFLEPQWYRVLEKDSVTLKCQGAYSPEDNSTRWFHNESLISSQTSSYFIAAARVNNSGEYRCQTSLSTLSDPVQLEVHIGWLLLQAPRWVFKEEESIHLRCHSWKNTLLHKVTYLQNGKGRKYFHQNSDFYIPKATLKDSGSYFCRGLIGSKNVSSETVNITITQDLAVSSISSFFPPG
# T3: cynomolgus monkey FcγRIIb extracellular domain, His-tagged (cynomolgus monkey)
# T3 construct: also called cyno FcγRIIb; cynoFcγRIIb; not shown: C-terminal His-tag
# T3 chain: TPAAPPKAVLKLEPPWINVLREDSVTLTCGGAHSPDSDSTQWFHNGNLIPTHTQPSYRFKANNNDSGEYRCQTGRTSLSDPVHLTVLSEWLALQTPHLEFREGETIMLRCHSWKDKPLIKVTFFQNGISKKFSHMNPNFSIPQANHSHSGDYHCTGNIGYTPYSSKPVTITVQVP
# T4: human FcγRIIaR extracellular domain, His-tagged (human, UniProt P12318 34-217)
# T4 construct: also called human FcγRIIa (type R); FcgRIIaR; not shown: C-terminal His-tag
# T4 chain: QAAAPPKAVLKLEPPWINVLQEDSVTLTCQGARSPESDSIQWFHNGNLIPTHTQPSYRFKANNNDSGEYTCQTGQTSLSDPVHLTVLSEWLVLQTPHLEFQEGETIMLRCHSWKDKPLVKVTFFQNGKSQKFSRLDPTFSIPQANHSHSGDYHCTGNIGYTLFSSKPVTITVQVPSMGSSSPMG
# T5: cynomolgus monkey FcγRIIa1 extracellular domain, His-tagged (cynomolgus monkey)
# T5 construct: also called cyno FcγRIIa1; cynoFcgRIIa1; not shown: C-terminal His-tag
# T5 chain: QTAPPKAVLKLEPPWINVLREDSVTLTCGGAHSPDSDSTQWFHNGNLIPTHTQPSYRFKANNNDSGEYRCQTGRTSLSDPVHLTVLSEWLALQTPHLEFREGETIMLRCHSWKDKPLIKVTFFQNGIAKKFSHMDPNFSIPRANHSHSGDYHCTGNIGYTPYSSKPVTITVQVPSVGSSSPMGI
# T6: cynomolgus monkey FcγRIIa2 extracellular domain, His-tagged (cynomolgus monkey)
# T6 construct: also called cyno FcγRIIa2; cynoFcgRIIa2; not shown: C-terminal His-tag
# T6 chain: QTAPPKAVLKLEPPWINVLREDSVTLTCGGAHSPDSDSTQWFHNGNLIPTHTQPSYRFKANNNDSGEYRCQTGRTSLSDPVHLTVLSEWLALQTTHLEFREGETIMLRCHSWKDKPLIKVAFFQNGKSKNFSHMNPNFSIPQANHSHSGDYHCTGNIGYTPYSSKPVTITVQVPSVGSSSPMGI
# T7: human FcγRIIb extracellular domain, His-tagged (human, UniProt P31994 43-217)
# T7 construct: also called FcgRIIb (human); not shown: C-terminal His-tag
# T7 sequence: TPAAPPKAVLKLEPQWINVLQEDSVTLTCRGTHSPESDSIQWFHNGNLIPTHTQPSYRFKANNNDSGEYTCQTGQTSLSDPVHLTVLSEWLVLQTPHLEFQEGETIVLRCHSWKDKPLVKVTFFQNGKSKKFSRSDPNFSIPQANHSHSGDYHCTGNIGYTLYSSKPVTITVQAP
# T8: human FcγRIIaH extracellular domain, His-tagged (human, UniProt P12318 34-217)
# T8 construct: also called human FcγRIIa (type H); FcgRIIaH; not shown: C-terminal His-tag
# T8 sequence: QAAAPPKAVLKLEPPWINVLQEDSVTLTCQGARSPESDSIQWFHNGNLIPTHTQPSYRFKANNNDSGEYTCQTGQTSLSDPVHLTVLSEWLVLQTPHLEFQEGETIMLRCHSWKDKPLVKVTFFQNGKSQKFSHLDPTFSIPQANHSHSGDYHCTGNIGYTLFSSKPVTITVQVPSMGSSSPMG
# T9: cynomolgus monkey FcγRIIa3 extracellular domain, His-tagged (cynomolgus monkey)
# T9 construct: also called cyno FcγRIIa3; cynoFcgRIIa3; not shown: C-terminal His-tag
# T9 chain: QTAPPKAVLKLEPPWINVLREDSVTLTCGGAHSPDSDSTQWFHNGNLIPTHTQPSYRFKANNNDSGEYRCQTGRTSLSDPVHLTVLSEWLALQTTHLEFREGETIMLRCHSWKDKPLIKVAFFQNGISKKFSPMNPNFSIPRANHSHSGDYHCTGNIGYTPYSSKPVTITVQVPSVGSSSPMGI
# Columns and labels:
# [1] = biological target: T1, human FcγRIIb extracellular domain, …; assay: SPR 25C; FcgR bound per captured antibody, relative to parent B3
# Protocol: These Fc variants are referred to as B3 variants. B3 variants were expressed and the binding of protein-A purified antibodies to each FcγR (FcγRIIa type H. FcγRIIa type R, FcγRIIb, and FcγRIIIaF) was comprehensively evaluated as follows. Analysis of interaction between each altered antibody and the Fcγ receptor prepared as mentioned above was carried out using BIACORE® T100 (GE Healthcare), BIACORE® T200 (GE Healthcare), BIACORE® A100, or BIACORE® 4000. HBS-EP+(GE Healthcare) was used as the running buffer, and the measurement temperature was set to 25° C. Chips produced by immobilizing Protein A (Thermo Scientific), Protein A/G (Thermo Scientific), or Protein L (ACTIGEN or BioVision) by the amine coupling method to a Series S sensor Chip CM5 or CM4 (GE Healthcare) were used. After capturing of antibodies of interest onto these sensor chips, an Fcγ receptor diluted with the running buffer was allowed to interact, the amount bound to an antibody was measured. However, since the amount of Fcγ receptor bound depends on the amount of the captured antibodies, the amount of Fcγ receptor bound was divided by the amount of each antibody captured to obtain corrected values, and these values were compared. Furthermore, antibodies captured onto the chips were washed by 10 mM glycine-HCl pH1.5, and the chips were regenerated and used repeatedly. […] The value obtained by multiplying this value by 100 was used as an indicator of the relative FcγR-binding activity of each variant.
# [2] = biological target: T2, cynomolgus monkey FcγRIIIaS …; assay: SPR (BIACORE), captured antibody, FcgR as analyte
# Protocol: (§1) The kinetic analysis of interactions between these antibodies and FcγR was carried out using BIACORE® T200 or BIACORE® 4000 (GE Healthcare). HBS-EP+ (GE Healthcare) was used as the running buffer, and the measurement temperature was set to 25° C. A chip produced by immobilizing Protein A. Protein A/G or mouse anti-human IgG kappa light chain (BD Biosciences) onto a Series S Sensor Chip CM4 or CM5 (GE Healthcare) by the amine-coupling method was used. […] After the measurement, the antibody captured on the chip was washed off by allowing reaction with 10 mM glycine-HCl, pH1.5 and 25 mM NaOH so that the chip was regenerated and used repeatedly. The sensorgrams obtained as measurement results were analyzed by the 1:1 Langmuir binding model using the BIACORE® Evaluation Software to calculate the binding rate constant ka (L/mol/s) and dissociation rate constant kd (l/s), and the dissociation constant KD (mol/L) was calculated from these values. […] Regarding such interactions, KD values were calculated using the following 1:1 binding model described in BIACORE® T100 Software Handbook BR1006-48 Edition AE.
# [3] = biological target: T3, cynomolgus monkey FcγRIIb extracellular …; assay: SPR (BIACORE), captured antibody, FcgR as analyte
# Protocol: as §1
# [4] = biological target: T4, human FcγRIIaR extracellular domain, …; assay: SPR (BIACORE), captured antibody, FcgR as analyte
# Protocol: as §1
# [5] = biological target: T5, cynomolgus monkey FcγRIIa1 …; assay: SPR (BIACORE), captured antibody, FcgR as analyte
# Protocol: as §1
# [6] = biological target: T6, cynomolgus monkey FcγRIIa2 …; assay: SPR (BIACORE), captured antibody, FcgR as analyte
# Protocol: as §1
# [7] = biological target: T7, human FcγRIIb extracellular domain, …; assay: SPR (BIACORE), captured antibody, FcgR as analyte
# Protocol: as §1
# [8] = biological target: T8, human FcγRIIaH extracellular domain, …; assay: SPR (BIACORE), captured antibody, FcgR as analyte
# Protocol: as §1
# [9] = biological target: T9, cynomolgus monkey FcγRIIa3 …; assay: SPR (BIACORE), captured antibody, FcgR as analyte
# Protocol: as §1
# [10] = biological target: T10, human FcγRIIIaV extracellular domain, His-tagged (human, UniProt P08637 17-208); assay: SPR (BIACORE), captured antibody, FcgR as analyte
# T10 construct: also called FcgRIIIaV; not shown: C-terminal His-tag
# T10 sequence (P08637 17-208 F176V): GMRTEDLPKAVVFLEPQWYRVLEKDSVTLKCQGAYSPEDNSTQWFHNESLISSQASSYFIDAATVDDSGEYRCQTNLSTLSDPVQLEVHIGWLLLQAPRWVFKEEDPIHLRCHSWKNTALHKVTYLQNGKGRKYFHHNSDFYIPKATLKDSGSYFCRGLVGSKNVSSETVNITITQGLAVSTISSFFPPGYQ
# Protocol: as §1
Binding to human FcgRs (parent B3 = 100) [1] [parent B3 = 100],Kd [2] [nM],Kd [3] [nM],Kd [4] [nM],Kd [5] [nM],Kd [6] [nM],Kd [7] [nM],Kd [8] [nM],Kd [9] [nM],Kd [10] [nM],Binder
88,,,,,,,,,,"GpH7-B3 variant V266F/GpL16-k0 (antibody, human IgG1, kappa) heavy: not shown light: DIVMTQSPLSLPVTPGEPASISCQASESLVHSNRNTYLHWYLQKPGQSPQLLIYKVSNRFSGVPDRFSGSGSGTDFTLKISRVEAEDVGVYYCSQNTHVPPTFGQGTKVEIERTVAAPSVFIFPPSDEQLKSGTASVVCLLNNFYPREAKVQWKVDNALQSGNSQESVTEQDSKDSTYSLSSTLTLSKADYEKHKVYACEVTHQGLSSPVTKSFNRGEC"
,1100,200,73,830,840,330,120,1200,3500,"M103205H795-MY457/M103202L889-SK1 (antibody, human IgG1, kappa, copies: 2 + 2) heavy: QVTLKESGPVLVKPTETLTLTCTVSGIDLSHDDISWVRQAPGKGLEWVGIISYAGSTYYASWAKGRLTISKDTSKNQVVLTMTNMDPVDTATYYCARGVPAYSHGGDLWGQGTLVTVSSASTKGPSVFPLAPSSKSTSGGTAALGCLVKDYFPEPVTVSWNSGALTSGVHTFPAVLQSSGLYSLSSVVTVPSSSLGTQTYICNVNHKPSNTKVDKKVEPKSCDKTHTCPPCPAWELLTGPSVFLFPPKPKDTLMISRTPEVTCVVVDVSDEDPEVKFNWYVDGVEVHNAKTKPREEQYNSTYRVVSVLTVLHQDWLNGKEYKCKVSNKALPKPIEKTISKAKGQPREPQVYTLPPSREEMTKNQVSLTCLVKGFYPSDIAVEWESNGQPENNYKTTPPVLDSDGSFFLYSKLTVDKSRWQQGNVFSCSVMHEALHNHYTQKSLSLSP light: DIVMTQSPATLSLSPGERATLSCTSSQSVYHANWLSWFQQKPGQPPKLLIYWASTLAYGVPSRFSGSGSGTDFTLTISSLQPEDAATYYCAGGYGGGRYAFGQGTKVEIKRTVAAPSVFIFPPSDEQLKSGTASVVCLLNNFYPREAKVQWKVDNALQSGNSQESVTEQDSKDSTYSLSSTLTLSKADYEKHKVYACEVTHQGLSSPVTKSFNRGEC"
,190,430,170,1800,1600,990,160,3000,5300,"M103205H795-MY458/M103202L889-SK1 (antibody, human IgG1, kappa, copies: 2 + 2) heavy: QVTLKESGPVLVKPTETLTLTCTVSGIDLSHDDISWVRQAPGKGLEWVGIISYAGSTYYASWAKGRLTISKDTSKNQVVLTMTNMDPVDTATYYCARGVPAYSHGGDLWGQGTLVTVSSASTKGPSVFPLAPSSKSTSGGTAALGCLVKDYFPEPVTVSWNSGALTSGVHTFPAVLQSSGLYSLSSVVTVPSSSLGTQTYICNVNHKPSNTKVDKKVEPKSCDKTHTCPPCPAYELLTGPSVFLFPPKPKDTLMISRTPEVTCVVVDVSDEDPEVKFNWYVDGVEVHNAKTKPREEQYNSTYRVVSVLTVLHQDWLNGKEYKCKVSNKALPKPIEKTISKAKGQPREPQVYTLPPSREEMTKNQVSLTCLVKGFYPSDIAVEWESNGQPENNYKTTPPVLDSDGSFFLYSKLTVDKSRWQQGNVFSCSVMHEALHNHYTQKSLSLSP light: DIVMTQSPATLSLSPGERATLSCTSSQSVYHANWLSWFQQKPGQPPKLLIYWASTLAYGVPSRFSGSGSGTDFTLTISSLQPEDAATYYCAGGYGGGRYAFGQGTKVEIKRTVAAPSVFIFPPSDEQLKSGTASVVCLLNNFYPREAKVQWKVDNALQSGNSQESVTEQDSKDSTYSLSSTLTLSKADYEKHKVYACEVTHQGLSSPVTKSFNRGEC"
